In paper PMC11592359:
Blank lines part the entries; values can stand above or below the substance they belong to.

What was measured:
[1] = molecular target: LZ-mDio3^cat: leucine zipper of A. thaliana Hy5 (residues 112-150) fused N-terminally to mouse Dio3 78-304 Sec170Cys (A. thaliana | Mus musculus); assay: native gel or EMSA; Blue Native PAGE, 5% stacking and 12.5% resolving gel, 4 °C; samples from the monomer and the dimer SEC peaks; catalase, BSA and chicken egg albumin as size markers
[2] = molecular target: LZ-mDio3^cat: leucine zipper of A. thaliana Hy5 (residues 112-150) fused N-terminally to mouse Dio3 78-304 Sec170Cys (A. thaliana | Mus musculus); assay: SEC; size exclusion chromatography of the purified recombinant protein (final purification step); 20 mM Tris/HCl pH 7.5/7.8, 200 mM NaCl, 1 mM TCEP; compared with molecular weight standards
[3] = molecular target: mouse iodothyronine deiodinase 2 catalytic domain, residues 71-262 (Sec130Cys) (Mus musculus) (UniProt Q9Z1Y9); assay: SEC-MALS; SEC with multi angle light scattering of the two species of Dio2-71-262 (Supplementary Figure S3A)
[4] = molecular target: mouse iodothyronine deiodinase 2 catalytic domain, residues 71-262 (Sec130Cys) (Mus musculus) (UniProt Q9Z1Y9); assay: native gel or EMSA; Blue Native PAGE, 5% stacking and 12.5% resolving gel, 4 °C; samples from the monomer and the dimer SEC peaks; catalase, BSA and chicken egg albumin as size markers
[5] = molecular target: mouse iodothyronine deiodinase 2 catalytic domain, residues 71-262 (Sec130Cys) (Mus musculus) (UniProt Q9Z1Y9); assay: SEC; size exclusion chromatography of the purified recombinant protein (final purification step); 20 mM Tris/HCl pH 7.5/7.8, 200 mM NaCl, 1 mM TCEP; compared with molecular weight standards
[6] = molecular target: mouse iodothyronine deiodinase 2, residues 49-262 (Mus musculus) (UniProt Q9Z1Y9); assay: not stated; size analysis of the recombinantly produced construct (Supplementary Figure S3C)

stoichiometry N [1]: 2
stoichiometry N [2]: 2
Substance: LZ-mDio3^cat: leucine zipper of A. thaliana Hy5 (residues 112-150) fused N-terminally to mouse Dio3 78-304 Sec170Cys (from UniProt O24646 112-150; Q91ZI8 78-304)

stoichiometry N [3]: 2
stoichiometry N [4]: 2
stoichiometry N [5]: 2
Substance: mouse iodothyronine deiodinase 2 catalytic domain, residues 71-262 (Sec130Cys) (from UniProt Q9Z1Y9 71-262) (domain or fragment)

stoichiometry N [6]: 2
Substance: mouse iodothyronine deiodinase 2, residues 49-262 (from UniProt Q9Z1Y9 49-262) (domain or fragment)
